The supplement of paper PMC10567573

B1: STX5 (parent)
chain: RSEFTLMAKRIGKDLSNTFAKLEK

Variants of: B1
Assay: protein stability index of a GFP-peptide fusion (GPS, HEK-293T) (PSI 1-6); higher = more stable
Details: c terminus: a fixed tail appended
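Note: lentivirally expressed fusions sorted by FACS into six bins by GFP to DsRed ratio, PSI derived from sequencing read proportions per bin multiplied by bin number.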

Protein stability index of substitutions, site by site:
F4: E 4.58; Y 2.1; N 2.98; M 2.35; G 3.64; S 3.69; R 3.34; P 3.58; C 2.65; K 3.62; V 1.8; Q 3.49; D 3.88; H 3.31
I11: R 3.81; C 2.06; W 1.18; A 2.77; N 4.29; G 3.41; P 3.52; M 1.65; K 2.93; T 3.13; E 3.9; Y 2.14; F 3.65; V 1.16; H 3.46; S 3.87
T5: F 3.04; K 1.54; W 2.76; C 1.8; N 2.57; Q 1.02; H 2.58; L 2.46; D 2.25; P 2.69; I 2.62
L6: C 2.21; T 2.48; P 2.85; H 1.86; R 3.66; F 2.36; I 3.08; Q 2.23; G 1.63; W 2.53; N 2.06; D 1.4; V 2.28
S2: T 1.9; F 2.72; W 2.39; D 1.66; C 3.2; N 1.03; P 2.07; G 1.51; A 1.36; Q 3.27
E23: I 2.84; D 2.2; W 2.37; H 3.8; K 5.04; P 2.32; C 3.47; F 2.65; L 3; A 1.98
G12: E 2.42; M 2.58; C 2.2; S 3.15; R 2.16; L 3.53; Q 1.69; H 2.87; D 2.9; K 2.79; F 2.15; V 1.54; P 3.81; N 1.81
A8: W 2.44; E 2.87; Q 2.96; I 2.79; S 2.1; G 2.49; T 1.54; D 3.02; Y 1.85; N 3.4; P 3.46; R 2.79; K 2.99
N17: P 2.5; Q 1.61; D 2.63; Y 1.93; A 3.04; S 3.13; F 2.34; E 3.15; T 2.75; L 2.21; I 3.01; W 1.81; C 2.02; G 3
K24: G 4.41; M 3.26; R 2.5; N 3.22; D 2.61; Y 3.59; V 2.42; T 3.14; S 1.63; L 2.38; P 2.42; H 2.46; E 1.76; Q 1.66
R10: D 3.12; E 2.94; A 2.85; T 1.99; F 2.29; M 1.99; G 2.35; H 2.01; V 1.09; P 4.03; C 2.66; K 3.31; S 2.11; N 2.36
T18: E 2.94; F 4.45; P 2.45; V 2.21; Y 3.54; I 3.4; K 3.25; D 3.07; S 1; M 2.63; R 1.77; N 1.27; W 1.96; G 3.21; A 2.31; H 2.41
S16: K 3.85; E 1.41; F 4.43; Q 2.14; P 2.46; G 2.41; V 3.75; D 2.45; R 3.34; L 2.89; C 1.65; W 1.99; I 3.35; Y 3.19; M 1.72
R1: H 3.98; A 2.12; I 1.92; S 2.54; L 3.25; N 1.82; Q 1.49; D 1.92; Y 4.8; P 2.63; K 2.08; E 1.45; V 2.54
M7: N 3.04; Y 2.39; H 2.03; A 1.64; F 3.38; R 2.72; E 3.2; V 2.73; K 3.75; W 3.31; Q 3.21; T 2.54; C 1.01; S 3.12; D 4.15; G 2.73
F19: C 2.69; M 1.62; W 2.48; Y 2.38; H 3.27; I 2.24; G 3.57; S 3.85; A 2.79; Q 3.44; V 1.96; P 3.94; D 4.69; N 3.42; K 2.71; T 3.8; R 3.88
L22: G 3.27; D 4.25; N 3.15; T 2.7; E 3.74; M 2.58; P 3.06; R 2.57; S 3.17; A 2.29; Q 2.92; H 2.7; C 1.79; I 4.01; Y 1.5; V 1.9; F 2.67
L15: S 2.81; Y 2.4; H 2.6; A 2.59; V 1.9; K 3.24; E 3.89; I 3.43; W 2.05; F 2.92; P 3.14; G 3.75; M 2.72; R 2.97; T 3.27; N 3.79; Q 3.1; C 1.53
K21: Y 1.45; H 2.51; F 2.61; N 1.04; P 2.38; S 2.95; M 1.94; V 1.4; T 2.01; R 2.53; A 1.96; I 2.12; G 2.21; E 2.04; L 2.47
D14: A 4.25; T 4.17; G 3.97; P 2.49; L 2.61; E 4.59; M 2.59; V 2.64; Y 2.65; C 2.71; K 3.03; Q 4.98; S 2.13
A20: N 1.84; D 2.15; C 3.2; V 2.24; S 1.32; T 2.69; E 1.58; I 1.63; W 2.44; M 2.64
K9: E 2.56; Q 2.54; Y 2.99; N 2.63; S 2.87; F 1.53; H 2.64; A 1.66; C 2.1; L 1.88; V 2.17; P 2.94; R 2.04; T 2.06; G 2.01; I 1.82; W 1.97; M 1.92
E3: H 2.61; M 2.25; L 4.31; K 2.75; Q 4.2; C 2.91; P 4.75; T 3.43; Y 2.51
K13: V 2.1; L 2.83; Q 2.35; N 2.06; M 1.07; F 3.26; G 2.84; S 2.55; C 2.46; A 1.49; D 3.34; R 2.33; E 2.34; P 2.54
